Results as given in US8088892B2, “Inhibitors of proteins from the Rho-GEF family” (Centre National de la Recherche Scientifique (C.N.R.S.), priority 2002, dated 2012).

B1: TRIAPα 9-38: variant of TRIAPα containing TRIPα 9-38 (SEQ ID NO: 10) inserted into the thioredoxin (protein)
chain: MSDKIIHLTDDSFDTDVLKADGAILVDFWAEWCGPICGYNLATLVMLGPSERVFCPLCEPCSSDIGPCKMIAPILDEIADEYQGKLTVAKLNIDQNPGTAPKYGIRGIPTLLLFKNGEVASATKVGALSKGQLKEFLDANLA
B2: TRIAPα 9-34: variant of TRIAPα containing TRIPα 9-34 (SEQ ID NO: 14) inserted into the thioredoxin (protein)
chain: MSDKIIHLTDDSFDTDVLKADGAILVDFWAEWCGPICGYNLATLVMLGPSERVFCPLCEPCGPCKMIAPILDEIADEYQGKLTVAKLNIDQNPGTAPKYGIRGIPTLLLFKNGEVASATKVGALSKGQLKEFLDANLA
B3: TRIAPα 1-33: variant of TRIAPα containing TRIPα 1-33 (SEQ ID NO: 18) inserted into the thioredoxin (protein)
chain: MSDKIIHLTDDSFDTDVLKADGAILVDFWAEWCGPAREGADGAICGYNLATLVMLGPSERVFCPLCEPGPCKMIAPILDEIADEYQGKLTVAKLNIDQNPGTAPKYGIRGIPTLLLFKNGEVASATKVGALSKGQLKEFLDANLA
B4: TRIAPα 9-40: variant of TRIAPα containing TRIPα 9-40 (SEQ ID NO: 8) inserted into the thioredoxin (protein)
chain: MSDKIIHLTDDSFDTDVLKADGAILVDFWAEWCGPICGYNLATLVMLGPSERVFCPLCEPCSSDIYEGPCKMIAPILDEIADEYQGKLTVAKLNIDQNPGTAPKYGIRGIPTLLLFKNGEVASATKVGALSKGQLKEFLDANLA
B5: TRIAPα 9-42: variant of TRIAPα containing TRIPα 9-42 (SEQ ID NO: 6) inserted into the thioredoxin (protein)
chain: MSDKIIHLTDDSFDTDVLKADGAILVDFWAEWCGPICGYNLATLVMLGPSERVFCPLCEPCSSDIYELMGPCKMIAPILDEIADEYQGKLTVAKLNIDQNPGTAPKYGIRGIPTLLLFKNGEVASATKVGALSKGQLKEFLDANLA
B6: TRIAPα 9-36: variant of TRIAPα containing TRIPα 9-36 (SEQ ID NO: 12) inserted into the thioredoxin (protein)
chain: MSDKIIHLTDDSFDTDVLKADGAILVDFWAEWCGPICGYNLATLVMLGPSERVFCPLCEPCSSGPCKMIAPILDEIADEYQGKLTVAKLNIDQNPGTAPKYGIRGIPTLLLFKNGEVASATKVGALSKGQLKEFLDANLA
B7: TRIAPα 9-33: variant of TRIAPα containing TRIPα 9-33 (SEQ ID NO: 16) inserted into the thioredoxin (protein)
chain: MSDKIIHLTDDSFDTDVLKADGAILVDFWAEWCGPICGYNLATLVMLGPSERVFCPLCEPGPCKMIAPILDEIADEYQGKLTVAKLNIDQNPGTAPKYGIRGIPTLLLFKNGEVASATKVGALSKGQLKEFLDANLA

Biological target: TrioGEFD2 (Homo sapiens, UniProt O75962)
Test: In vitro guanine nucleotide exchange (GEF) assay on RhoA
Format: biochemical
Parameters: using recombinant GST-TrioGEFD2 (a.a. 1848-2298), TrioDH2 (a.a. 1848-2096); made in house
Settings: 20-fold molar excess (8 μM) inhibitor, 0.4 μM GST-GEFD2, 0.3 μM [3H]GDP-RhoA, 15 min
Description: For that purpose, aptamers, TrioGEFD2 and RhoA are expressed as GST-fusion proteins. RhoA is loaded with ^3H-GDP, and the release of GDP is followed after addition of GEFD2 in presence or in absence of the selected aptamers (as described in Debant et al., 1996).
A 20-fold molar excess (8 μM) of GST-aptamers TRIAPα, TRIAPβ (another TrioGEFD2 binding aptamer), TRIAPγ (another TrioGEFD2 binding aptamer) or the empty thioredoxine (Trx) were pre-incubated with 0.4 μM GST-GEFD2 (left side of FIG. 2A) or 0.4 μM GST-DH2 (right side of FIG. 2A), as indicated, before adding 0.3 μM of [^3H]GDP loaded GST-RhoA. The exchange activity was monitored by the decrease of [^3H]GDP bound-RhoA after 15 min (see Materials and Methods). The amount of [^3H]GDP bound-RhoA incubated without GEF (first bar on the left) was defined as 100% The values and errors bars were calculated from at least three independent experiments.
0.4 μM GST-GEFD2 were incubated with increasing amounts of GST-TRIAPα (grey bars) or GST (black bars), and the exchange assay was then performed on 0.3 μM RhoA, as described in A.
An in vitro guanine nucleotide exchange (GEF) assay was used to test whether the TrioGEFD2-binding aptamers could inhibit the catalytic activity of TrioGEFD2 towards RhoA. For this purpose, the aptamers TRIAPα, TRIAPβ and TRIAPγ (including the Trx gene) were excised from pEG202 as EcoRI/NotI fragments and cloned into pGEX4T1 EcoRI/NotI. The aptamers were then expressed and purified from bacteria as GST fusion proteins, using standard procedures (Smith and Johnson, 1988). GTPase-GST fusion proteins were prepared, loaded with [^3H]GDP and the guanine nucleotide release assays were performed as described (Debant et al., 1996), using recombinant GST-TrioGEFD2 (a.a. 1848-2298), TrioDH2 (a.a. 1848-2096). For each point, 0.3 μM GTPase was mixed with or without 0.4 μM GEF in presence of non-labeled GTP, and the reaction mix was filtered after 0 min and 15 mm reaction at 25° C. The catalytic activity of TrioGEFD2 was thus measured by the decrease of the GTPase-associated radioactivity. The results are expressed as the ratio “exchange after 15 min over exchange after 0 min” (% bound [^3H]GDP-RhoA). To measure the effect of the aptamers on the exchange activity, a 20-fold molar excess of GST-TRIAPs was pre-incubated with GEFD2 (or GEFD1) for 30 min on ice before the exchange assay was carried out. For each experiment, data were obtained in triplicate.

Inhibition of TrioGEFD2 exchange activity on RhoA in vitro	Molecule
displayed fill inhibitory activity	B1
displayed fill inhibitory activity	B2
displayed fill inhibitory activity	B3
displayed fill inhibitory activity	B4
did not alter its inhibitory effect	B5
displayed fill inhibitory activity	B6
had a reduced activity	B7
